Data on eleven molecules can be found in PMC11480083.

Changes are numbered by the printed parent chain. Names may count otherwise.

For data set [1], the system named is O=C(c1ccc(O)cc1O)c1ccc(O)cc1O. The data set is described as follows: purified protein. The settings on record: 4 mM UDP-Glc, 100 mM Kpi pH 8.0, 30 °C.
Substrate in data set [2]: O=C(c1ccc(O)cc1O)c1ccc(O)cc1O
The data set is described as follows: steady-state kinetics, HPLC. To be noted: UDP-Glc donor. Type of data set: biochemical, Nelumbo nucifera.

Substrate in data set [3]: O=C(c1ccc(O)cc1O)c1ccc(O)cc1O
The data set is described as follows: steady-state kinetics, HPLC. The class given is biochemical, Gardenia jasminoides. The settings on record: UDP-Glc donor.

Substrate in data set [4]: O=C(c1ccc(O)cc1O)c1ccc(O)cc1O
In words: purified protein.

Substrate in data set [5]: O=C(c1ccc(O)cc1O)c1ccc(O)cc1O
In words: steady-state kinetics, HPLC. The settings on record: UDP-Glc donor. Type of data set: biochemical, Citrus japonica.

MiCGT (Mangifera indica): in data set [1], the Km was found to be 430 ± 155 µM and the kcat was found to be 0.00848 ± 0.00147 s⁻¹.

MiCGT (Mangifera indica; E152Q): in data set [1], the Km is 176 ± 25 µM.

“MiCGT (Mangifera indica; E152Q/S122P/V190D)”: in data set [1], the Km turned out to be 36 ± 3 µM and the kcat turned out to be 0.1579 ± 0.00172 s⁻¹.

For MiCGT (Mangifera indica; E152Q/V190D), the Km in data set [1] turned out to be 189 ± 21 µM.

With MiCGT (Mangifera indica; M148A), the Km in data set [1] is 269 ± 49 µM.

Consider “MiCGT (Mangifera indica; M148A/S121D/V190T)”, for which, in data set [1], the Michaelis-Menten constant (Km) came to 249 ± 30 µM and the kcat came to 0.51143 ± 0.0157 s⁻¹.

Regarding MiCGT (Mangifera indica; M148A/V190T), in data set [1], the Km stood at 317 ± 100 µM.

B1: NnGT (Nelumbo nucifera; C156Q/L197D/S126P) (protein)
chain: MEMSSSSDLQILPPHVALLPSSGMGHLVPFVRLAAALARRNCLVTFITTHPTVSLSESRLVSRLLSAFPHVTPLEFHLLPLDHSTANSKDPFFLQFEAIRRSAHLLSPLLSSCSDPPLSALITDVPLASAFISITDELRLPNYILFTSSAWMLSLQLNFPTFVVNTSTNLSGGSATASDDIEIPGVPPVPKSWLPPDLLDLSNLFTTQFMANGQELIKSNGILINTFGNAEQATVAALNEGKVVNGLPPVTKIGPLAPCEFEKGSSVEWLDGQPAGSVLYVSFGSRTAMSREQIRELGDGLVRSGCRFLWVVKDKKVDREDEEELGGIVGQELMERMKDNGLVVKNWVDQGVVLAHPAVGGFLSHCGWNSVTEAAWNGVPVLAWPQHGDQSINAQVMEKSGIGMWVKSWGWGRTEVVKGEEIGQKIGEMMGNDRLKAQAANIREESRRAVEVGGGSYKELEGIIEKWKISRI
As for B1, in data set [2], the Km was found to be 319 ± 61 µM and the kcat came to 0.00872 ± 0.000567 s⁻¹.

B2: GjGTa (Gardenia jasminoides; A142M/F116S/F117P) (protein)
chain: MENTLVLYPAPGIGHMISMLELAKLILRHYSNKFSRIHILINTGFRDMKSTYLDHISSTNPSIVVHQFPFIQADLSSSLSPPAIGFKFIRKNAPNVHHALQEISKTSSIRALIIDSPCTSAMPYSNNLGIPVYYFFTSGAAMVALFLYFPTIHKQTSESFKDLVQTKFDVPGLPPIPATQMPEPVLDRDDPAYDDILYYSVHLPKSSGIIVNTFDELEPIALKAITDGLCVPDAPTPPLYNIGPLIADADSRPAIDGDKGIDLDQSDCFSWLDRQPDQCVVFLCFGSRGTFSVEQIKEIAKGLERSGKRFLWVVKKPLRNNKSKQVEGSGGFEIDSILPERFLEKTKGIGLVVKSWIPQLQVLRHPAVGGFVTHCGWNSTLEAVVAGVPLVAWPLHAEQHVNMAALVQDMKMAIPVEQGDDGIVRGEEVEKRVRELMDSERGRELRKLSQKTRDIAAESGVHLGSSSTALASLIHVVFGN
Turning to B2, in data set [3], the Km stood at 12 ± 0.5 µM and the kcat worked out at 0.00035 ± 1.2e-06 s⁻¹.

B3: FcCGT (Citrus japonica; A189D/T149Q) (protein)
chain: MSDSGGFDSHPHVALIPSAGMGHLTPFLRLAASLVQHHCRVTLITTYPTVSLAETQHVSHFLSAYPQVTEKRFHLLPFDPNSANATDPFFLRWEAIRRSAHLLAPLLSPPLSALITDVTLISAVLPVTINLHLPNYVLFTASARMFSLQASFPAIVASKSTSSGSVEFDDDFIEIPGLPPIPLSSVPPDVMDSKSLFATSFLENGNSFVKSNGVLINSFDALEADTLVALNGRRVVAGLPPVYAVGPLLPCEFEKRDDPSTSLILKWLDDQPEGSVVYVSFGSRLALSMEQTKELGNGLLSSGCRFLWVVKGKTVDKEDEESLKNVLGHELMEKIKDQGLVVKNWVDQDKVLSHRAVGGFVSHGGWNSLVEAARHGVPVLVWPQFGDQKINAEAVESAGLGMWVRSWGWGTELRAKGDEIGLKIKDLMANDFLREQAKRIEEEARKAIGVGGSSERTFKELIDKWKCNNNTH
Regarding B3, in data set [4], the Km turned out to be 375 ± 72 µM and the turnover number (kcat) came out at 0.04075 ± 0.0016 s⁻¹.

B4: FcCGT (Citrus japonica; M145A/V118D) (protein)
chain: B3 chain with V118D, M145A, Q149T, D189A
With B4, in data set [5], the Michaelis constant (Km) was 1064 ± 151 µM and the kcat is 0.05323 ± 0.00218 s⁻¹.
